# In patent publication US20120277286A1, “COMPOSITIONS AND METHODS FOR THE TREATMENT OR PREVENTION OF MITOCHONDRIAL DISEASES” (The Government of the USA, as represented by the Secretary, …, priority 2009, published 2012):
# Where a chain is given by its changes, count along the chain named. Numbers in names are those of the source. *1 amine or outer side, *2 acyl side, *3 side chain or, on linkers, in order; H or OH if unused. Where a SMILES comes first, the peptide text is derived from it. Bridges are numbered along the chain shown (N, C = ends). Roman numbers before positions name the chains, in order. [ ]: non-standard residue; d: D form. Actinocin(9to1) = Cc1c2oc3c(C)ccc(C(=O)[*:1])c3nc-2c(C(=O)[*:2])c(N)c1=O; NMeV = CN[C@H](C(=O)O)C(C)C; Sar = CNCC(=O)O
# B1: Twinkle G575D: catalytically inactive mutant of mitochondrial DNA helicase Twinkle, Flag-tagged (protein, UniProt Q96RR1 32-684, looked up, variant G575D)
# Twinkle mtDNA helicase: APGPPRRRYRKETLQALDMPVLPVTATEIRQYLRGHGIPFQDGHSCLRALSPFAESSQLKGQTGVTTSFSLFIDKTTGHFLCMTSLAEGSWEDFQASVEGRGDGAREGFLLSKAPEFEDSEEVRRIWNRAIPLWELPDQEEVQLADTMFGLTKVTDDTLKRFSVRYLRPARSLVFPWFSPGGSGLRGLKLLEAKCQGDGVSYEETTIPRPSAYHNLFGLPLISRRDAEVVLTSRELDSLALNQSTGLPTLTLPRGTTCLPPALLPYLEQFRRIVFWLGDDLRSWEAAKLFARKLNPKRCFLVRPGDQQPRPLEALNGGFNLSRILRTALPAWHKSIVSFRQLREEVLGELSNVEQAAGLRWSRFPDLNRILKGHRKGELTVFTGPTGSGKTTFISEYALDLCSQGVNTLWGSFEISNVRLARVMLTQFAEGRLEDQLDKYDHWADRFEDLPLYFMTFHGQQSIRTVIDTMQHAVYVYDICHVIIDNLQFMMGHEQLSTDRIAAQDYIIGVFRKFATDNNCHVTLVIHPRKEDDDKELQTASIFDSAKASQEADNVLILQDRKLVTGPGKRYLQVSKNRFDGDVGVFPLEFNKNSLTFSIPPKNKARLKKIKDDTGPVAKKPSSGKKGATTQNSEICSGQAPTPDQPDTSKRSK
# modifications: Flag tag
# B2: wild-type Twinkle: Flag-tagged wild-type mitochondrial DNA helicase Twinkle (protein, UniProt Q96RR1 32-684, looked up)
# Twinkle mtDNA helicase: B1 Twinkle mtDNA helicase with D544G
# modifications: Flag tag
# B3: T175E: phosphomimetic YFP-Parkin mutant (protein, UniProt O60260 1-465, looked up, variant T175E)
# E3 ubiquitin-protein ligase …: MIVFVRFNSSHGFPVEVDSDTSIFQLKEVVAKRQGVPADQLRVIFAGKELRNDWTVQNCDLDQQSIVHIVQRPWRKGQEMNATGGDDPRNAAGGCEREPQSLTRVDLSSSVLPGDSVGLAVILHTDSRKDSPPAGSPAGRSIYNSFYVYCKGPCQRVQPGKLRVQCSTCRQATLELTQGPSCWDDVLIPNRMSGECQSPHCPGTSAEFFFKCGAHPTSDKETSVALHLIATNSRNITCITCTDVRSPVLVFQCNSRHVICLDCFHLYCVTRLNDRQFVHDPQLGYSLPCVAGCPNSLIKELHHFRILGEEQYNRYQQYGAEECVLQMGGVLCPRPGCGAGLLPEPDQRKVTCEGGNGLGCGFAFCRECKEAYHEGECSAVFEASGTTTQAYRVDERAAEQARWEAASKETIKKTTKPCPRCHVPVEKNGGCMHMKCPQPQCRLEWCWNCGCEWNRVCMGDHWFDV
# modifications: YFP fusion
# notes: phosphomimetic YFP-Parkin mutant
# B4: C212Y: YFP-Parkin patient mutation in conserved RING-like region (protein, UniProt O60260 1-465, looked up, variant C212Y)
# E3 ubiquitin-protein ligase …: B3 E3 ubiquitin-protein ligase … with E175T, C212Y
# modifications: N-terminal YFP fusion
# notes: YFP-Parkin patient mutation in conserved RING-like region
# B5: C289G: YFP-Parkin patient mutation in conserved RING cysteine (protein, UniProt O60260 1-465, looked up, variant C289G)
# E3 ubiquitin-protein ligase …: B3 E3 ubiquitin-protein ligase … with E175T, C289G
# modifications: YFP fusion
# notes: YFP-Parkin patient mutation in conserved RING cysteine
# B6: C441R: YFP-Parkin patient mutation in conserved RING cysteine (protein, UniProt O60260 1-465, looked up, variant C441R)
# E3 ubiquitin-protein ligase …: B3 E3 ubiquitin-protein ligase … with E175T, C441R
# modifications: YFP fusion
# notes: as for B5
# B7: C253Y: YFP-Parkin patient mutation in conserved RING cysteine (protein, UniProt O60260 1-465, looked up, variant C253Y)
# E3 ubiquitin-protein ligase …: B3 E3 ubiquitin-protein ligase … with E175T, C253Y
# modifications: YFP fusion
# notes: as for B5
# B8: T175, 217E: double phosphomimetic YFP-Parkin mutant (protein, UniProt O60260 1-465, looked up, variant T175E T217E)
# E3 ubiquitin-protein ligase …: B3 E3 ubiquitin-protein ligase … with T217E
# modifications: YFP fusion
# notes: double phosphomimetic YFP-Parkin mutant
# B9: I44A: YFP-Parkin with engineered UBL mutation (protein, UniProt O60260 1-465, looked up, variant I44A)
# E3 ubiquitin-protein ligase …: B3 E3 ubiquitin-protein ligase … with I44A, E175T
# modifications: YFP fusion
# notes: YFP-Parkin with engineered UBL mutation
# B10: T217E: phosphomimetic YFP-Parkin mutant (protein, UniProt O60260 1-465, looked up, variant T217E)
# E3 ubiquitin-protein ligase …: B3 E3 ubiquitin-protein ligase … with E175T, T217E
# modifications: YFP fusion
# notes: as for B3
# B11: PINK1-YFP: YFP fused to PINK1 (protein, UniProt Q9BXM7 78-581, looked up)
# Serine/threonine-protein …: AARLQRQFVVRAWGCAGPCGRAVFLAFGLGLGLIEEKQAESRRAVSACQEIQAIFTQKSKPGPDPLDTRRLQGFRLEEYLIGQSIGKGCSAAVYEATMPTLPQNLEVTKSTGLLPGRGPGTSAPGEGQERAPGAPAFPLAIKMMWNISAGSSSEAILNTMSQELVPASRVALAGEYGAVTYRKSKRGPKQLAPHPNIIRVLRAFTSSVPLLPGALVDYPDVLPSRLHPEGLGHGRTLFLVMKNYPCTLRQYLCVNTPSPRLAAMMLLQLLEGVDHLVQQGIAHRDLKSDNILVELDPDGCPWLVIADFGCCLADESIGLQLPFSSWYVDRGGNGCLMAPEVSTARPGPRAVIDYSKADAWAVGAIAYEIFGLVNPFYGQGKAHLESRSYQEAQLPALPESVPPDVRQLVRALLQREASKRPSARVAANVLHLSLWGEHILALKNLKLDKMVGWLLQQSAATLLANRLTEKCCVETKMKMLFLANLECETLCQAALLLCSWRAAL
# modifications: YFP fusion
# System: HeLa cells
# Experiment: Parkin colocalization with mitochondria scored by confocal microscopy
# Format: cell-based
# Conditions: for effect on CCCP-induced Parkin recruitment to mitochondria: HeLa cells expressing YFP-Parkin, added together with CCCP; for cells with Parkin localized to mitochondria: HeLa transfected with Flag-tagged Twinkle for 5 days; for spontaneous translocation of mutant YFP-Parkin to mitochondria: without CCCP; for recruitment of mutant YFP-Parkin to depolarized mitochondria: CCCP 1 hr; for recruitment of mutant YFP-Parkin to mitochondria: 10 μM CCCP, 24 hours
# Description: Cultured cells seeded in borosilicate chamber slides (Thermo Fisher Scientific) were transfected or cotransfected with YFP-Parkin, ECFP-Parkin, mCherry-Parkin, DsRed-Mito (Clontech Laboratories, Inc.), pcDNA3.1 (Invitrogen), vMIA, and/or Drp1K38A constructs using Fugene 6 (Roche). Parkin-myc was a gift from M. Cookson (National Institutes of Health, Bethesda, Md.). Cells were fixed 12-24 hours after transfection with 4% paraformaldehyde in PBS. Cells were stained with following primary antibodies: mouse monoclonal cytochrome c (BD), rabbit polyclonal Tom20 (Santa Cruz Biotechnology, Inc.), mouse monoclonal Parkin PRK8 (Santa Cruz Biotechnology, Inc.), rabbit polyclonal PMP70 (Invitrogen), and/or mouse monoclonal TRAP1 (Abcam); and with the following secondary antibodies: mouse and/or rabbit Alexa 488, 594, and 633 (Invitrogen). For assessment of mitochondrial membrane potential, cells were pulsed with 50 nM Mito-Tracker red (Invitrogen) for 15 min, washed, and incubated for an additional 10 minutes before fixation or imaging. For assessment of cell metabolic potential, cell nuclei were stained with Hoechst 33342 (Invitrogen).
# Fixed cells and live cells in the FLIP assay were imaged using an inverted microscope (LSM510 Meta; Carl Zeiss, Inc.) with a 63×/1.4 oil DIC Plan Apo objective at 25° C. and 37° C., respectively. For the FLIP assay, a bleach region of interest (ROI) occupying approximately one eighth of the cell was positioned over a relatively mitochondria-free portion of the cytosol. Cells were alternately bleached (488 nm using a 30-mW argon laser at 75% power and 100% transmission for 150 iterations) and imaged (488 nm at 75% power and 2% transmission) for 10 minutes (—60 cycles over the length of the experiment). Two channel prebleach and postbleach images were obtained with 488 and 594 lasers to assess the position of mitochondria before and after bleaching. Circular ROIs with diameters of ˜1 and 5 μm, respectively, were placed over the mitochondria and cytosol of the target cell, and an ROI of 10 μm was placed over the control cell. Imaging of YFP-Parkin translocation in live HeLa cells was performed on a live cell imager system (UltraView LCI; PerkinElmer) at 35° C. with a 100×/1.45 α-Plan-Fluor objective.
# Image contrast and brightness were adjusted in Photoshop (Adobe). Colocalization was assessed with line scans using MetaMorph (MDS Analytical Technologies). For analysis of mitochondrial membrane potential in cells, mitochondrial voxels in each image (the cytochrome c channel threshold was ≧400 au) were segregated into Parkin-positive (the YFP-Parkin channel threshold was ≧1,100 au) or Parkin-negative subsets, and MitoTracker intensity for each voxel was measured using Volocity software (Improvision). For each cell, the mean MitoTracker intensity per voxel was calculated for the Parkin-positive and Parkin-negative subsets. The difference in mean Mito-Tracker intensity between the Parkin-positive and Parkin-negative subsets was calculated using a paired t test. Western blotting HeLa cells stably expressing YFP-Parkin, HEK293 cells, and rat cortical neurons 2 days in vitro were harvested and fractionated as described previously (Karbowski et al., J. Cell Biol. 178: 71-84, 2007). Samples were run on SDS-PAGE and immunoblotted with the following antibodies: polyclonal rabbit anti-GFP (Invitrogen), mouse monoclonal anti-Parkin (PRK8), and mouse monoclonal anti-Porin 31HL (EMD).
# Confocal microscopy of fixed samples, scoring of Parkin recruitment and Parkininduced mitophagy, and live cell imaging were performed as described previously (Narendra (2008) J Cell Biol 183: 795-803). Experiments in Mfn1/2 null cells were performed as described previously with minor modifications.
# Confocal microscopy of fixed samples, scoring of Parkin recruitment and Parkin-induced mitophagy, and live cell imageing were performed as described previously (Narendra (2008) J Cell Biol 183: 795-803). […]
molecule,measurement,setting,value
"CC(=O)N[C@@H](CS)C(=O)O [N-acetyl-cysteine, reference compound]",effect on CCCP-induced Parkin recruitment to mitochondria,,not blocked
"Cc1c2oc3c(C)ccc(C(=O)N[C@@H]4C(=O)N[C@H](C(C)C)C(=O)N5CCC[C@H]5C(=O)N(C)CC(=O)N(C)[C@@H](C(C)C)C(=O)O[C@@H]4C)c3nc-2c(C(=O)N[C@@H]2C(=O)N[C@H](C(C)C)C(=O)N3CCC[C@H]3C(=O)N(C)CC(=O)N(C)[C@@H](C(C)C)C(=O)O[C@@H]2C)c(N)c1=O [actinomycin D, reference compound] (I: T[dV]P[Sar][NMeV] / II: T[dV]P[Sar][NMeV]; ester I:1-I:C, II:1-II:C; linker I:N-II:N via Actinocin(9to1))",effect on CCCP-induced Parkin recruitment to mitochondria,,modest effect
"CC[C@H]1/C=C/C=C/C[C@@H](C)[C@H](O)[C@@](C)(O)C(=O)[C@@H](C)[C@H](O)[C@@H](C)C(=O)[C@@H](C)[C@H](O)[C@@H](C)/C=C/C(=O)O[C@@H]2[C@H](C)[C@H](CC1)O[C@]1(CC[C@H](C)[C@H](C[C@@H](C)O)O1)[C@H]2C [oligomycin, reference compound]",effect on CCCP-induced Parkin recruitment to mitochondria,,not inhibited
same,"YFP-Parkin colocalization with mitochondria, % of cells","HeLa cells, 10 μM CCCP+10 μM oligomycin, 1 hour",77.35±7.64%
B1,cells with Parkin localized to mitochondria,,13.1±2.3%
B2,cells with Parkin localized to mitochondria,,6.7±1.2%
B3,spontaneous translocation of mutant YFP-Parkin to mitochondria,HeLa,did not translocate to mitochondria spontaneously
B4,recruitment of mutant YFP-Parkin to depolarized mitochondria,HeLa,blocked
B5,recruitment of mutant YFP-Parkin to mitochondria,HeLa,Mitochondrial recruitment was seen
same,recruitment of mutant YFP-Parkin to depolarized mitochondria,HeLa,completely disrupt
B6,recruitment of mutant YFP-Parkin to mitochondria,HeLa,Mitochondrial recruitment was seen
same,recruitment of mutant YFP-Parkin to depolarized mitochondria,HeLa,completely disrupt
B7,recruitment of mutant YFP-Parkin to depolarized mitochondria,HeLa,completely disrupt
B8,spontaneous translocation of mutant YFP-Parkin to mitochondria,HeLa,did not translocate to mitochondria spontaneously
B9,recruitment of mutant YFP-Parkin to depolarized mitochondria,HeLa,moderate deficit
B10,spontaneous translocation of mutant YFP-Parkin to mitochondria,HeLa,did not translocate to mitochondria spontaneously
B11,cells with mCherry-Parkin recruited to mitochondria,"HeLa, co-expression, absence of CCCP",57.9±1.8%
